According to PMC5493658, “Post-secretional activation of Protease IV by quorum sensing in Pseudomonas aeruginosa” (Scientific Reports, 2017):

Molecular target: T1, P-PIV: His-tagged protease IV (PIV) purified from PAO-T7 (Pseudomonas aeruginosa, UniProt Q9HWK6 212-462)
T1 construct: Protease IV (PIV), lysyl-endopeptidase encoded by piv, Pseudomonas aeruginosa; 26 kDa mature PIV left after removal of the signal peptide and the propeptide (residues 1-211 of the 48 kDa prepro-PIV); because the N-terminus is processed twice during secretion it is probably C-terminal (surmise); also called His-tagged active PIV; mature PIV; source: P. aeruginosa PAO-T7 harboring pQF21c-PIV, …
T1 sequence: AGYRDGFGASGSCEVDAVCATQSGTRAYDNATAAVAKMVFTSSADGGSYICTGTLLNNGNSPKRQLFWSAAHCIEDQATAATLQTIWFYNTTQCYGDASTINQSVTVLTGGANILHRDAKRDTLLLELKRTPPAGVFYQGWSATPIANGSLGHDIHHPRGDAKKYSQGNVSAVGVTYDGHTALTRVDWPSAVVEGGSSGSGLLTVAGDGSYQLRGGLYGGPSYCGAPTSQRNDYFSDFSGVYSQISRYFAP
Assay: pull-down; 1 ug purified propeptide mixed with 1 ug His-tagged P-PIV in 25 ul, room temperature 10 min; loaded on Ni-NTA agarose column, washed twice with 5 mM imidazole, eluted with 200 mM imidazole; SDS-PAGE
Conditions: both partners purified

B1: propeptide of PIV purified from E. coli (domain or fragment)
chain: APGASEMAGDVAVLQASPASTGHARFANPNAAISAAGIHFAAPPARRVARAAPLAPKPGTPLQVGVGLKTATPEIDLTTLEWIDTPDGRHTARFPISAAGAASLRAAIRLETHSGSLPDDVLLHFAGAGKEIFEASGKDLSVNRPYWSPVIEGDTLTVELVLPANLQPGDLRLSVPQVSYFADSLYK
notes: Propeptide of protease IV (PIV), Pseudomonas aeruginosa; expressed as residues 1-211 of prepro-PIV (signal peptide and propeptide); also called purified propeptide; PP; source: E. coli BL21 (DE3) harboring pET16b-pro, purified (Ni-NTA, Q sepharose, size exclusion chromatography); not shown: His tag, N-terminal, cleaved
binding result: binds
